According to paper PMC4267192:

Target: CCA1-GST (UniProt P92973)
Test: EMSA
Conditions: 25 mM HEPES-KOH pH 7.5, 50 mM KCl, 2.5 mM DTT, 1 mM PMSF, 10% glycerol, 1 ug poly-dIdC in 10 ul, 20 min on ice (final concentrations calculated from 5X …)

Chain of CCA1-GST (P92973 whole entry): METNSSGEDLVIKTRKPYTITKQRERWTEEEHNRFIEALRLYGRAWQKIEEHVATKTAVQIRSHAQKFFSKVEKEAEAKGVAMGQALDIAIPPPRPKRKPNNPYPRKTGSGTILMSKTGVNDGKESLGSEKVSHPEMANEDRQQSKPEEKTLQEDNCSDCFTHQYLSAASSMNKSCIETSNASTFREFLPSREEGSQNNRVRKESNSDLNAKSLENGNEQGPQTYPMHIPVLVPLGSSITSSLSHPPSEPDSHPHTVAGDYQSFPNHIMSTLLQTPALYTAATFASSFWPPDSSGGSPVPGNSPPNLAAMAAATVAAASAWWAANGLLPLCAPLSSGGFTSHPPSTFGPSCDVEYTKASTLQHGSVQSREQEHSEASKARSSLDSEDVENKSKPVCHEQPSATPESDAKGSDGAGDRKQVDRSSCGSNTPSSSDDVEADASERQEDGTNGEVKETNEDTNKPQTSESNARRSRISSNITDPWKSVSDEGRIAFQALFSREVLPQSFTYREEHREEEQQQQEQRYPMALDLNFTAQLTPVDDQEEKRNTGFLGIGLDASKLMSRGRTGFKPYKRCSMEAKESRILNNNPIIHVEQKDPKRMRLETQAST

## AATCAATTCCTCTCTCTTAAAACAAAGAAGAAAAAAACAGAGAAGAAGAAGAAAAAATCTATCTCCGCCATGAACGCGAGAGCTCTTCTTTGCTCTTCAAATATTCACTCTCTCTAC (double strand) [PHT4;1 promoter probe 3]
  binding: binds

## GTTAGCTTACGAGCATAAATTGCGAGATCTATCTTACTTCCCCAATGAAAAAAAAATCTCAAAGATTTGGAAGTAGACCTATGAATAGAATTACAATAATACGGCAATACCAATAACAA (double strand) [PHT4;1 promoter probe 2]
  binding: binds
